What was measured:
[1] = Half-life of GLK/IFNα fusion proteins in SD rats; assay type: in vivo
Text: The structure characteristics and half-life in SD rats of the different GLK/IFNαs, which was constructed by fusion to different GLK, was compared in Table 5.

2′,5′-OAS = assay: Serum 2′,5′-OAS activity in rhesus monkeys after subcutaneous administration; assay type: in vivo
Protocol: Rhesus monkeys.(n=15; including female and male; age range: 3-4; weight range: 4.2-4.8 kg), were purchased from Animal Center of Chinese Academy of Military Medicine and divided into five groups (3 in each group). Samples were diluted with PBS, wherein rGLK1164/IFNα was diluted respectively to 0.36, 1.0 and 3.6 pmol/kg, IFNα (positive control) was diluted to 0.36 pmol/kg, and rGLK1164 (blank control) was diluted to 0.36 pmol/kg. The diluted samples were administered to rhesus monkeys subcutaneously and the serum samples were collected at 0, 1, 2, 4, 8, 10, 14 […] after injection respectively. The activity of 2′, 5′-OAS in serum was measured with 2′,5′-OAS radioimmunoassay kit (Eiken Chemical Co., Tokyo, Japan).

erythropoiesis = assay: Erythropoiesis in normal mice, hemoglobin (Hb) content; assay type: in vivo, BALB/c mice; details: weekly subcutaneous administration
Protocol: rEPO/GLK1074 fusion protein was compared with standard rEPO (EPOGEN®, AMGEN Inc.) in erythropoiesis activity in mice. BALB/c mice (male, 6-8 weeks old, 18˜20 g/only) from the Shanghai Institute of animal testing center were used in the experiments. Grouping, injection, and tail vein blood samples collecting were performed according to the following table. Hemoglobin (Hb) content was determined by colorimetric.

GLK302/IFNα: IFNα fused with GLK302, a repeated sequence of GGSGGS (SEQ ID NO: 16)
Half-life [1]: 14.4 h

IFNα [reference compound]
detectability in vivo (2′,5′-OAS): could hardly be detected 6 days later

rEPO: standard rEPO (EPOGEN®, AMGEN Inc.) [reference compound]
erythropoiesis activity, Hb levels (erythropoiesis): significantly lower than rEPO/GLK1074
